# Source: article PMC7729135, “PPARγ S273 Phosphorylation Modifies the Dynamics of Coregulator Proteins Recruitment” (Frontiers in Endocrinology, 2020)
# T1: Gal-NCoR (ID1 + ID2 + ID3, mouse NCoR from 1629 to the C terminus) (mouse, UniProt Q60974 1629-2453)
# T1 construct: mouse NCoR from 1629 to the C terminus (ID1 + ID2 + ID3), in the vector pM (Clontech); Plasmid provided by A. Le Maire (CBS, CNRS); also called NCoR wt; source: HEK293T cells, transfected (mammalian two-hybrid fusion)
# T1 sequence (looked up): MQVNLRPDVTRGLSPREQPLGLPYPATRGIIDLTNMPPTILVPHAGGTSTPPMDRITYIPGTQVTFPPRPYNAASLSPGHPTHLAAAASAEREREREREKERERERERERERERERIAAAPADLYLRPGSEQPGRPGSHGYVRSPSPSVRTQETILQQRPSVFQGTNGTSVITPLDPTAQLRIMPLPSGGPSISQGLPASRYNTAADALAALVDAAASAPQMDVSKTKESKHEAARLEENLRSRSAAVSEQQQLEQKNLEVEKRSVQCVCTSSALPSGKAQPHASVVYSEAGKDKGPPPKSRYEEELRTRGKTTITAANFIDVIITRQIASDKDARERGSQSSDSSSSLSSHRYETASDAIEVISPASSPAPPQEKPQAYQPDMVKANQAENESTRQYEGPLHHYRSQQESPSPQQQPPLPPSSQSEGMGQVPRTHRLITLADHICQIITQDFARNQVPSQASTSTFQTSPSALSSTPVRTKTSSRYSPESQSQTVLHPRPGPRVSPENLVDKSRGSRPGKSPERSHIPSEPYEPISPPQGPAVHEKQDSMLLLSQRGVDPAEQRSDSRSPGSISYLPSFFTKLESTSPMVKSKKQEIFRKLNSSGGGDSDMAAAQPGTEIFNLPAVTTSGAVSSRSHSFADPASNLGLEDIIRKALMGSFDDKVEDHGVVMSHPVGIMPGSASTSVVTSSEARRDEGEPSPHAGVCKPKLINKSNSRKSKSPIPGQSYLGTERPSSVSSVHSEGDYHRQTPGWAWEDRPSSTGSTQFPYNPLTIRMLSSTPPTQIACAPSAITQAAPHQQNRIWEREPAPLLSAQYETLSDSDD
# T2: Gal-PGC1-α (mouse PGC1-α 136-340) (mouse, UniProt O70343 136-340)
# T2 construct: mouse PGC1-α, amino acids 136 to 340, in the vector pM (Clontech); holds ID1 LKKLL (residues 142-146); also called PGC1-α wt; Gal4-PGC1-α; source: COS-7 cells, transfected (mammalian two-hybrid fusion)
# T2 sequence (looked up): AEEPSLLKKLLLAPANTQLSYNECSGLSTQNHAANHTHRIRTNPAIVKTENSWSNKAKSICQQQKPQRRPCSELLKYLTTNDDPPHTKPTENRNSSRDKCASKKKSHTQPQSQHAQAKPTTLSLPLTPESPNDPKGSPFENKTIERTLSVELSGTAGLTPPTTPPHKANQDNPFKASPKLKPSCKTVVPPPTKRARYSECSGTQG
# T3: Gal-TIF2 (three interaction domains, human TIF2 624-869) (human, UniProt Q15596 624-869)
# T3 construct: also called TIF2 wt; source: COS-7 cells, transfected (mammalian two-hybrid fusion)
# T3 sequence (looked up): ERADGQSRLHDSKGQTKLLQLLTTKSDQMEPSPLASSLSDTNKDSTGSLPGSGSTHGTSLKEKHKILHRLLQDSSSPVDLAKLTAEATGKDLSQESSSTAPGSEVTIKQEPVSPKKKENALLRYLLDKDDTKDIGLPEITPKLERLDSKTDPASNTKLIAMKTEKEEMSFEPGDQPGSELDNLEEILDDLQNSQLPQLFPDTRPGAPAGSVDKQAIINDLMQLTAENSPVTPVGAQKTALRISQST
# B1: PPARγ LBD (aa207-aa477), purified (domain or fragment, UniProt P37231-2 207-477, looked up)
# chain: ESADLRALAKHLYDSYIKSFPLTKAKARAILTGKTTDKSPFVIYDMNSLMMGEDKIKFKHITPLQEQSKEVAIRIFQGCQFRSVEAVQEITEYAKSIPGFVNLDLNDQVTLLKYGVHEIIYTMLASLMNKDGVLISEGQGFMTREFLKSLRKPFGDFMEPKFEFAVKFNALELDDSDLAIFIAVIILSGDRPGLLNVKPIEDIQDNLLQALELQLKLNHPESSQLFAKLLQKMTDLRQIVTEHVQLLQVIKKTETDMSLHPLLQEIYKDLY
# notes: also called PPARγ wt; PPARγ wild-type
# Tests used:
# [1] = target: VP16-PPARγ (LBD region of PPARγ fused to the VP16 transactivation domain) (UniProt P37231); assay: mammalian two-hybrid assay; conditions: for response: read off a plot; for other: Dissociation ratio / other: Fold activation: Rosiglitazone against no treatment
# [2] = target: Gal-SMRT (ID1 + ID2, human SMRT from 982 to the C terminus) (human); assay: two-hybrid; mammalian two-hybrid in Hek293T cells (corepressors): Gal4 DBD-corepressor + VP16-PPARγ LBD + pGRE-LUC + Renilla control; with or without 1 μM Rosiglitazone for 24 h; interaction rate = luminescence divided by that of the corepressor without PPARγ
# [3] = target: T1, Gal-NCoR (ID1 + ID2 + ID3, mouse NCoR …); assay: as above; conditions: partners not purified
# [4] = target: T2, Gal-PGC1-α (mouse PGC1-α 136-340); assay: two-hybrid; as a1 (COS-7 cells, coactivators) with co-transfected pCDNA-CDK5 (CDK5 and P35); conditions: partners not purified
# Gal-SMRT ID2m (human) = assay: two-hybrid; mammalian two-hybrid in Hek293T cells (corepressors): Gal4 DBD-corepressor + VP16-PPARγ LBD + pGRE-LUC + Renilla control; with or without 1 μM Rosiglitazone for 24 h; interaction rate = luminescence divided by that of the corepressor without PPARγ
# [5] = target: T3, Gal-TIF2 (three interaction domains, …); assay: two-hybrid; mammalian two-hybrid in COS-7 cells (coactivators): Gal4 DBD-coactivator + VP16-PPARγ LBD + pGRE-LUC + Renilla control; with or without 1 μM Rosiglitazone for 24 h; interaction rate = luminescence divided by that of the empty Gal4 vector; conditions: partners not purified
# [6] = target: T4, Gal-TRAP220 (ID1 + ID2, human TRAP220 404-654) (human, UniProt Q15648 404-654); assay: as above; conditions: partners not purified
# T4 construct: human TRAP220, amino acids 404 to 654 (ID1 + ID2), in the vector pM (Clontech); source: COS-7 cells, transfected (mammalian two-hybrid fusion)
# [7] = target: T2, Gal-PGC1-α (mouse PGC1-α 136-340); assay: as above; conditions: partners not purified
# [8] = target: T1, Gal-NCoR (ID1 + ID2 + ID3, mouse NCoR …); assay: two-hybrid; as a2 (Hek293T cells, corepressors) with co-transfected pCDNA-CDK5 (CDK5 and P35); conditions: partners not purified
# [9] = target: B1; assay: pull-down; coactivators: extract of His tagged PGC1-α on TALON resin or of GST-tagged TIF2 on Glutathione Sepharose, washed; then purified tag-free PPARγ or S273A, pre-incubated 20 min with rosiglitazone, 2 h at 4°C; eluate blotted with anti-PPARγ; conditions: both partners purified
# [10] = target: B1; assay: fluorescence polarisation; fluorescence anisotropy: PPARγ wt, S273A or S273D (200 μM to 6 nM) titrated into FITC-labelled affinity purified coactivator, in the elution buffer of the coactivator, with Rosiglitazone (3× molar excess); Kd from a Hill model; conditions: both partners purified
# [11] = target: T5, GST-tagged SMRT (aa2041-aa2359) (UniProt Q9Y618 2041-2359, FITC (fluorescein isothiocyanate) label in the fluorescence anisotropy assay; unlabelled in the pull-down); assay: fluorescence polarisation; fluorescence anisotropy: PPARγ wt, S273A or S273D (200 μM to 6 nM) titrated into FITC-labelled affinity purified corepressor, in the elution buffer of the corepressor; Kd from a Hill model; conditions: both partners purified
# T5 construct: SMRT aa2041-aa2359; source: modified E. coli BL21(DE3) strain
# T5 sequence (Q9Y618 2041-2359): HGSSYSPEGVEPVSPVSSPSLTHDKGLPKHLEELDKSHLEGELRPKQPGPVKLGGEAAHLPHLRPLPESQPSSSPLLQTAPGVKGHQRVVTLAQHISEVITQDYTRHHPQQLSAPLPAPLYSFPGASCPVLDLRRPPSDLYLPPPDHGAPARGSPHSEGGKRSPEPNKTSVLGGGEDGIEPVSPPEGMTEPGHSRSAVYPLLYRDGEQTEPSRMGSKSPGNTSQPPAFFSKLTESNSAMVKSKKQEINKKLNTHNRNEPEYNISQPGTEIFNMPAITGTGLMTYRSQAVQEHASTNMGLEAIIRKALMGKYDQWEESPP
# T4 sequence (Q15648 404-654): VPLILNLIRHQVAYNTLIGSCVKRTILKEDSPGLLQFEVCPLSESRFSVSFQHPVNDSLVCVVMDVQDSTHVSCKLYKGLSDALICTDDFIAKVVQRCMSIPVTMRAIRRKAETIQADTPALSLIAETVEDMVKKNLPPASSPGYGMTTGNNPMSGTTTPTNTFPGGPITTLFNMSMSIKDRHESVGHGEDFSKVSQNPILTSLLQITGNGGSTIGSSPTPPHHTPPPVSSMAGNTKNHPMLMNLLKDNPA
# Sequence of Gal-SMRT (ID1 + ID2, human SMRT from 982 to the C terminus) (human) (Q9Y618 whole entry, the tested form may be a part): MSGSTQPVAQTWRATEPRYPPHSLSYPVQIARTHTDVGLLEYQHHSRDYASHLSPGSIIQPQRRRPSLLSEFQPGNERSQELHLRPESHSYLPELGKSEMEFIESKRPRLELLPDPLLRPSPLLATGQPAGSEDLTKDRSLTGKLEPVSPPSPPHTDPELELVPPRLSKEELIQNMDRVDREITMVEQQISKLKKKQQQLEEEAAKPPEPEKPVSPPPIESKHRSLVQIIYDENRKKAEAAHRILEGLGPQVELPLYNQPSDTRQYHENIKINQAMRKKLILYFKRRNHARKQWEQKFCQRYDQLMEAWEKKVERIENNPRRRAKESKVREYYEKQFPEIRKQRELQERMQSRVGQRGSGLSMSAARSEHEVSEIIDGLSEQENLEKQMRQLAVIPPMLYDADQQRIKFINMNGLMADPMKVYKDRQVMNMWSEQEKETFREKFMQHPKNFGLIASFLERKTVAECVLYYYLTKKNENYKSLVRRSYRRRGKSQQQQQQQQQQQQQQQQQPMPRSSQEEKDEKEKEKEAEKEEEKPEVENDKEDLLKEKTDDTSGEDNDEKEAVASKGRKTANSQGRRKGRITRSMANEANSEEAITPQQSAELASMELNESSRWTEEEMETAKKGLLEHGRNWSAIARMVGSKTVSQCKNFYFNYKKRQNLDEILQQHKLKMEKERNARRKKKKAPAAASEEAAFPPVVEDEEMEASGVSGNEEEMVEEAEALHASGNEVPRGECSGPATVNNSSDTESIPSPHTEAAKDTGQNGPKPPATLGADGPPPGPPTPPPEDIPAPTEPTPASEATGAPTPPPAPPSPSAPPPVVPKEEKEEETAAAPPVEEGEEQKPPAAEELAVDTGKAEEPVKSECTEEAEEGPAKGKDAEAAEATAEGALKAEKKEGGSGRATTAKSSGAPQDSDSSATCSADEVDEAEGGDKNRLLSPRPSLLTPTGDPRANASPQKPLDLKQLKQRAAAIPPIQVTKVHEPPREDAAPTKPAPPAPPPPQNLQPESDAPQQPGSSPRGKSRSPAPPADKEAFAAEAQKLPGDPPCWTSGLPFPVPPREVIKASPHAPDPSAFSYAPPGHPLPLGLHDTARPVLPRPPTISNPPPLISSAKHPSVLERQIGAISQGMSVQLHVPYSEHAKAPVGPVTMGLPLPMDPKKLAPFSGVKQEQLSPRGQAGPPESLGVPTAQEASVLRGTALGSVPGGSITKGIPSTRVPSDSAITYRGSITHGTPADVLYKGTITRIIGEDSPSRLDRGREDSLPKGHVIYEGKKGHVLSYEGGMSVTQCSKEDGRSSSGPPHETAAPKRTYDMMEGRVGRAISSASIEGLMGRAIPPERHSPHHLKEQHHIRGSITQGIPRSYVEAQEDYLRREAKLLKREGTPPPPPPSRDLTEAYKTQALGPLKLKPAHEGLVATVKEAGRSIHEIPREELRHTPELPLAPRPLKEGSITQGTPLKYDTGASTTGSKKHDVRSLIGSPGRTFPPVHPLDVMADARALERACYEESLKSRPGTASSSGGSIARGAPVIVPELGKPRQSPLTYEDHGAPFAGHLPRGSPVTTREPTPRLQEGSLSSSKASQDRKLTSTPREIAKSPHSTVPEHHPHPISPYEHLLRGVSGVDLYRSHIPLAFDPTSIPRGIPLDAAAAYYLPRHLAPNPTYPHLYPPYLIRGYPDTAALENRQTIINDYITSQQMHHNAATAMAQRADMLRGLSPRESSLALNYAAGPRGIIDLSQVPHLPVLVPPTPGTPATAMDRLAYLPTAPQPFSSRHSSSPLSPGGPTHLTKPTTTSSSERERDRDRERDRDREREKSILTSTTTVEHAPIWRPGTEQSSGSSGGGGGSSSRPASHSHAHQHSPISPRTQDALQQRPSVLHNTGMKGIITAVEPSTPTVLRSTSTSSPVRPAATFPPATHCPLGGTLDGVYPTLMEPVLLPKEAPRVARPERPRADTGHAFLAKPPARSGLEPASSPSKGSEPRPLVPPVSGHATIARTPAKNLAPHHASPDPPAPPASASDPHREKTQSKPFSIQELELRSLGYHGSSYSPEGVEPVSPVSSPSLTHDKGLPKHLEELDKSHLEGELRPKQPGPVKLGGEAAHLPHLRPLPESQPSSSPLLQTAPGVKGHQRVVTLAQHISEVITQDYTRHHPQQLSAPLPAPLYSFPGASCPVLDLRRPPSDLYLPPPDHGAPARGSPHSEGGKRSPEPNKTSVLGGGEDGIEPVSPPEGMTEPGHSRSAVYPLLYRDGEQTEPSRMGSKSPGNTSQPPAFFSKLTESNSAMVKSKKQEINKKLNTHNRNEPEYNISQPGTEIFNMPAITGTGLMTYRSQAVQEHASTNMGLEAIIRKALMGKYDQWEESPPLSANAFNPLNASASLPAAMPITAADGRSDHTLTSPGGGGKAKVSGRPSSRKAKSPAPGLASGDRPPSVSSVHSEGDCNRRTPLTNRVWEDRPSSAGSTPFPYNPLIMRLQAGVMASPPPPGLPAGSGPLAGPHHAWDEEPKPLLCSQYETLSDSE
molecule,measurement,setting,value
"Gal-NCoR (ID1 + ID2 + ID3, mouse NCoR from 1629 to the C terminus) (from UniProt Q60974) ID3 IDVII changed to IDVAA",response,"[1]; No treatment, parent: est. 3.6",2.2
same,other: Dissociation ratio,[1],39%
same,response,"[1]; Rosiglitazone, parent: est. 1.2",1.3
"Gal-SMRT (ID1 + ID2, human SMRT from 982 to the C terminus) V2097A; I2098A",response,"[1]; No treatment, parent: est. 2.3",2.4
same,other: Dissociation ratio,[1],58%
"Gal-TIF2 (three interaction domains, human TIF2 624-869) (from UniProt Q15596) ID2 LHRLL changed to LHRAA",response,"[1]; No treatment, parent: est. 1.0",1.3
same,other: Fold activation,[1],0.3
same,response,"[1]; Rosiglitazone, parent: est. 1.4",1.7
"Gal-TIF2 (three interaction domains, human TIF2 624-869) (from UniProt Q15596) ID3 LRYLL changed to LRYAA",response,"[1]; No treatment, parent: est. 0.95",0.45
same,other: Fold activation,[1],0.5
same,response,"[1]; Rosiglitazone, parent: est. 1.3",0.75
VP16-PPARγ (LBD region of PPARγ fused to the VP16 transactivation domain) (from UniProt P37231 238-503) (domain or fragment),dissociation rate in the presence of the ligand (Rosiglitazone),[2],65%
"VP16-PPARγ (LBD region of PPARγ fused to the VP16 transactivation domain) (domain or fragment, UniProt P37231 238-503, looked up, plasmid provided by A. Le Maire (CBS, CNRS); also called PPARγ wt; source: COS-7 or HEK293T cells, transfected (mammalian two-hybrid fusion)) DLRALAKHLYDSYIKSFPLTKAKARAILTGKTTDKSPFVIYDMNSLMMGEDKIKFKHITPLQEQSKEVAIRIFQGCQFRSVEAVQEITEYAKSIPGFVNLDLNDQVTLLKYGVHEIIYTMLASLMNKDGVLISEGQGFMTREFLKSLRKPFGDFMEPKFEFAVKFNALELDDSDLAIFIAVIILSGDRPGLLNVKPIEDIQDNLLQALELQLKLNHPESSQLFAKLLQKMTDLRQIVTEHVQLLQVIKKTETDMSLHPLLQEIYKD","interaction rate in the two-hybrid assay (fold), in absence of CDK5",[3],4 fold
same,"interaction rate in the two-hybrid assay (fold), with CDK5",[4],2 fold
same,fold reduction of the interaction against SMRT wt,Gal-SMRT ID2m (human),6 fold
same,"interaction rate in the two-hybrid assay (fold), in absence of CDK5",[5],1.5 fold
same,interaction rate in the two-hybrid assay (fold),[6],4 fold
same,interaction rate in the two-hybrid assay (fold),[7],7 fold
same,"interaction rate in the two-hybrid assay (fold), in absence of CDK5",[7],5 fold
same,"interaction rate in the two-hybrid assay (fold), with CDK5",[8],2 fold
"GST-tagged TIF2 (aa563-aa757) (domain or fragment, UniProt Q15596 563-757, looked up, FITC (fluorescein isothiocyanate) label in the fluorescence anisotropy assay; unlabelled in the pull-down, TIF2 aa563-aa757; source: E. coli BL21 (DE3)) QNSPVNMNPPPLSKMGSLDSKDCFGLYGEPSEGTTGQAESSCHPGEQKETNDPNLPPAVSSERADGQSRLHDSKGQTKLLQLLTTKSDQMEPSPLASSLSDTNKDSTGSLPGSGSTHGTSLKEKHKILHRLLQDSSSPVDLAKLTAEATGKDLSQESSSTAPGSEVTIKQEPVSPKKKENALLRYLLDKDDTKDI",binding result,[9],binds
"His tagged PGC1-α (aa138-aa341) (domain or fragment, UniProt O70343 138-341, looked up, FITC (fluorescein isothiocyanate) label in the fluorescence anisotropy assay; unlabelled in the pull-down, PGC1-α aa138-aa341; source: E. coli BL21 (DE3)) EPSLLKKLLLAPANTQLSYNECSGLSTQNHAANHTHRIRTNPAIVKTENSWSNKAKSICQQQKPQRRPCSELLKYLTTNDDPPHTKPTENRNSSRDKCASKKKSHTQPQSQHAQAKPTTLSLPLTPESPNDPKGSPFENKTIERTLSVELSGTAGLTPPTTPPHKANQDNPFKASPKLKPSCKTVVPPPTKRARYSECSGTQGS",Kd,[10],55.8 ± 2.9 µM
B1,Kd,[11],4.06 ± 1.01 µM
